*1 amine or outer side, *2 acyl side, *3 side chain or, on linkers, in order; H or OH if unused. Where a SMILES comes first, the peptide text is derived from it. Bridges are numbered along the chain shown (N, C = ends). Side-chain parts run from the residue outwards. [ ]: non-standard residue; d: D form. The star is where a group is joined. X1 = CC(C)(C)C(=O)CN1C(=O)[C@H](N*)CN(C2CCCCC2)c2ccccc21; DOTA = O=C(O)CN1CCN(CC(=O)O)CCN(CC(=O)*)CCN(CC(=O)O)CC1; 3Abz = Nc1cccc(C(=O)O)c1; CO = O=C([*:1])[*:2]
Experiment: in vivo
Details: BALB/c nude, mouse, in vivo, iv, total radioactivity
Protocol: To a 0.5 M NaOAc buffer (20-50 μL, pH=4.5) was added 4 μL of exemplary or comparator compound in DMSO stock solution (2000 μM) and 2 mCi ^177Lu (ITM Isotope Technologies Munich), the resulting mixture was heated to 95° C. for 15 min. The resulting product was analyzed by radio-TLC and radio-HPLC (column: Shim-pack GIST 5 μm 4.6*150 mm; buffer A: 0.2% formic acid H2O; buffer B: 0.1% formic acid acetonitrile; flow rate: 1 mL/min; gradient: 0-5 min: 10% B to 95% B; then 5-8 min: 95% B). The labelled products were used immediately or diluted by a PBS buffer containing freshly added 3 mg/mL ascorbate.
All animal care and experimental procedure were performed by following the animal protocols approved by the ethics committee of China Institute of Radiation Protection. The BALB/c nude mice (Charles River, Beijing) were utilized for these studies. Mice were below 5 per cage in sterile, microisolator cages under temperature- and humidity-controlled conditions with a 12 h light/12 h dark schedule and fed irradiated rodent chow and reverse osmosis (RO) sterile water ad libitum. In preparation for tumor cell inoculations, mice were anesthetized with isoflurane (RWD Life Science Inc.) at an induction rate of 4% and maintained at a rate of 2.5% with 0.4 L oxygen delivered via precision vaporizer and a non-rebreathing apparatus. These mice received subcutaneous rear flank injections of approximately 4×10^6 AR42J cells ([…] pancreatic cancer cell line) suspended in 200 μL of phosphate-buffered saline (PBS) and Matrigel (Corning) (1/1). Xenografted tumors were allowed to grow for ~2-4 weeks post-inoculation and ranged in mass from 0.05 to 0.50 g (average tumor size, 0.20 g). […] The mice were euthanized, and the tissues and organs were excised from the animals at 4, 24 and 72 h post-injection. The tissues and organs were weighed, counted in a PerkinElmer 2480 WIZARD2 γ counter, and the percent injected dose (% ID) and % ID/g of each organ or tissue were calculated.

Molecule `C[C@@H](O)[C@H](NC(=O)[C@@H]1CSSC[C@H](NC(=O)[C@@H](Cc2ccccc2)NC(=O)[C@H](CCCCNC(=O)c2cccc(NC(=O)N[C@@H]3CN(C4CCCCC4)c4ccccc4N(CC(=O)C(C)(C)C)C3=O)c2)NC(=O)COCCOCCNC(=O)CN2CCN(CC(=O)O)CCN(CC(=O)O)CCN(CC(=O)O)CC2)C(=O)N[C@@H](Cc2ccc(O)cc2)C(=O)N[C@H](Cc2c[nH]c3ccccc23)C(=O)N[C@@H](CCCCN)C(=O)N[C@@H]([C@@H](C)O)C(=O)N1)C(=O)O` [Compound I-35, DOTA-OEG-K(Z360)-f[CYwKTC]T-OH] has a tissue to tissue ratio at 24 h (T/K Tumor/Kidney ratio) of 2.9, a tissue to tissue ratio at 24 h (T/L Tumor/Liver ratio) of 3.5 and a tissue to tissue ratio at 24 h (T/P Tumor/Pancreas ratio) of 19. For the same molecule, the tissue to tissue ratio at 24 h (T/Sp Tumor/Spleen ratio) was 38, the tissue to tissue ratio at 24 h (T/St Tumor/Stomach ratio) was 5.8 and the tissue uptake at 24 h (uptake Kidney) was 6.1 %ID/g. The tissue uptake at 24 h (uptake Liver) was 5.06 %ID/g, the tissue uptake at 24 h (uptake Pancreas) was 0.96 %ID/g and the tissue uptake at 24 h (uptake Spleen) was 0.47 %ID/g. The tissue uptake at 24 h (uptake Stomach) was 3.09 %ID/g and the tissue uptake at 24 h (uptake Tumor) was 17.8 %ID/g.

In the case of `C[C@@H](O)[C@H](NC(=O)[C@@H]1CSSC[C@H](NC(=O)[C@@H](Cc2ccccc2)NC(=O)CCOCCOCCOCCNC(=O)[C@H](CCCCNC(=O)c2cccc(NC(=O)N[C@@H]3CN(C4CCCCC4)c4ccccc4N(CC(=O)C(C)(C)C)C3=O)c2)NC(=O)CN2CCN(CC(=O)O)CCN(CC(=O)O)CCN(CC(=O)O)CC2)C(=O)N[C@@H](Cc2ccc(O)cc2)C(=O)N[C@H](Cc2c[nH]c3ccccc23)C(=O)N[C@@H](CCCCN)C(=O)N[C@@H]([C@@H](C)O)C(=O)N1)C(=O)O` [Compound I-38, DOTA-K(Z360)-PEG3-f[CYwKTC]T-OH], the tissue to tissue ratio at 24 h (T/K Tumor/Kidney ratio) is reported as 1.8, the tissue to tissue ratio at 24 h (T/L Tumor/Liver ratio) is reported as 6.1 and the tissue to tissue ratio at 24 h (T/P Tumor/Pancreas ratio) is reported as 18. For the same molecule, the tissue to tissue ratio at 24 h (T/Sp Tumor/Spleen ratio) was 72, the tissue to tissue ratio at 24 h (T/St Tumor/Stomach ratio) was 4.2 and the tissue uptake at 24 h (uptake Kidney) was 7.9 %ID/g. The tissue uptake at 24 h (uptake Liver) was 2.3 %ID/g, the tissue uptake at 24 h (uptake Pancreas) was 0.8 %ID/g and the tissue uptake at 24 h (uptake Spleen) was 0.2 %ID/g. It also gave a tissue uptake at 24 h (uptake Stomach) of 3.4 %ID/g and a tissue uptake at 24 h (uptake Tumor) of 14.3 %ID/g.

Molecule `C[C@@H](O)[C@H](NC(=O)[C@@H]1CSSC[C@H](NC(=O)[C@@H](Cc2ccccc2)NC(=O)CCOCCOCCOCCOCCOCCOCCNC(=O)[C@H](CCCCNC(=O)c2cccc(NC(=O)N[C@@H]3CN(C4CCCCC4)c4ccccc4N(CC(=O)C(C)(C)C)C3=O)c2)NC(=O)CN2CCN(CC(=O)O)CCN(CC(=O)O)CCN(CC(=O)O)CC2)C(=O)N[C@@H](Cc2ccc(O)cc2)C(=O)N[C@H](Cc2c[nH]c3ccccc23)C(=O)N[C@@H](CCCCN)C(=O)N[C@@H]([C@@H](C)O)C(=O)N1)C(=O)O` [Compound I-40, DOTA-K(Z360)-PEG6-f[CYwKTC]T-OH] has a tissue to tissue ratio at 24 h (T/K Tumor/Kidney ratio) of 2, a tissue to tissue ratio at 24 h (T/L Tumor/Liver ratio) of 5.7 and a tissue to tissue ratio at 24 h (T/P Tumor/Pancreas ratio) of 59. It also gave a tissue to tissue ratio at 24 h (T/Sp Tumor/Spleen ratio) of 53, a tissue to tissue ratio at 24 h (T/St Tumor/Stomach ratio) of 10 and a tissue uptake at 24 h (uptake Kidney) of 8.9 %ID/g. The tissue uptake at 24 h (uptake Liver) was 3.1 %ID/g, the tissue uptake at 24 h (uptake Pancreas) was 0.3 %ID/g and the tissue uptake at 24 h (uptake Spleen) was 0.3 %ID/g. It also gave a tissue uptake at 24 h (uptake Stomach) of 1.8 %ID/g and a tissue uptake at 24 h (uptake Tumor) of 17.9 %ID/g.

`C[C@@H](O)[C@H](NC(=O)[C@@H]1CSSC[C@H](NC(=O)[C@@H](Cc2ccccc2)NC(=O)[C@H](CCCCNC(=O)c2cccc(NC(=O)N[C@@H]3CN(C4CCCCC4)c4ccccc4N(CC(=O)C(C)(C)C)C3=O)c2)NC(=O)COCCOCCNC(=O)COCCOCCNC(=O)CN2CCN(CC(=O)O)CCN(CC(=O)O)CCN(CC(=O)O)CC2)C(=O)N[C@@H](Cc2ccc(O)cc2)C(=O)N[C@H](Cc2c[nH]c3ccccc23)C(=O)N[C@@H](CCCCN)C(=O)N[C@@H]([C@@H](C)O)C(=O)N1)C(=O)O` [Compound I-41, DOTA-OEG-OEG-K(Z360)-f[CYwKTC]T-OH] showed a tissue to tissue ratio at 24 h (T/K Tumor/Kidney ratio) of 1.7, a tissue to tissue ratio at 24 h (T/L Tumor/Liver ratio) of 10 and a tissue to tissue ratio at 24 h (T/P Tumor/Pancreas ratio) of 24. The tissue to tissue ratio at 24 h (T/Sp Tumor/Spleen ratio) was 55, the tissue to tissue ratio at 24 h (T/St Tumor/Stomach ratio) was 4 and the tissue uptake at 24 h (uptake Kidney) was 9.7 %ID/g. For the same molecule, the tissue uptake at 24 h (uptake Liver) was 1.5 %ID/g, the tissue uptake at 24 h (uptake Pancreas) was 0.7 %ID/g and the tissue uptake at 24 h (uptake Spleen) was 0.3 %ID/g. It also gave a tissue uptake at 24 h (uptake Stomach) of 4 %ID/g and a tissue uptake at 24 h (uptake Tumor) of 16.1 %ID/g.

Work on `C[C@@H](O)[C@H](NC(=O)[C@@H]1CSSC[C@H](NC(=O)[C@@H](Cc2ccccc2)NC(=O)[C@H](CCCCNC(=O)c2cccc(NC(=O)N[C@@H]3CN(C4CCCCC4)c4ccccc4N(CC(=O)C(C)(C)C)C3=O)c2)NC(=O)CCOCCOCCOCCNC(=O)CN2CCN(CC(=O)O)CCN(CC(=O)O)CCN(CC(=O)O)CC2)C(=O)N[C@@H](Cc2ccc(O)cc2)C(=O)N[C@H](Cc2c[nH]c3ccccc23)C(=O)N[C@@H](CCCCN)C(=O)N[C@@H]([C@@H](C)O)C(=O)N1)C(=O)O` [Compound I-48, DOTA-PEG3-K(Z360)-f[CYwKTC]T-OH] yielded a tissue to tissue ratio at 24 h (T/K Tumor/Kidney ratio) of 1.8, a tissue to tissue ratio at 24 h (T/L Tumor/Liver ratio) of 2.7 and a tissue to tissue ratio at 24 h (T/P Tumor/Pancreas ratio) of 14. It also gave a tissue to tissue ratio at 24 h (T/Sp Tumor/Spleen ratio) of 19, a tissue to tissue ratio at 24 h (T/St Tumor/Stomach ratio) of 4 and a tissue uptake at 24 h (uptake Kidney) of 10.6 %ID/g. The tissue uptake at 24 h (uptake Liver) was 7.02 %ID/g, the tissue uptake at 24 h (uptake Pancreas) was 1.35 %ID/g and the tissue uptake at 24 h (uptake Spleen) was 1.02 %ID/g. For the same molecule, the tissue uptake at 24 h (uptake Stomach) was 4.75 %ID/g and the tissue uptake at 24 h (uptake Tumor) was 18.9 %ID/g.

Molecule `C[C@@H](O)[C@H](NC(=O)[C@@H]1CSSC[C@H](NC(=O)[C@@H](Cc2ccccc2)NC(=O)[C@H](CCCCNC(=O)c2cccc(NC(=O)N[C@@H]3CN(C4CCCCC4)c4ccccc4N(CC(=O)C(C)(C)C)C3=O)c2)NC(=O)CNC(=O)CNC(=O)CN2CCN(CC(=O)O)CCN(CC(=O)O)CCN(CC(=O)O)CC2)C(=O)N[C@@H](Cc2ccc(O)cc2)C(=O)N[C@H](Cc2c[nH]c3ccccc23)C(=O)N[C@@H](CCCCN)C(=O)N[C@@H]([C@@H](C)O)C(=O)N1)C(=O)O` [Compound I-49, DOTA-G-G-K(Z360)-f[CYwKTC]T-OH] ({DOTA}-GGK([3Abz-CO-X1])[dF]CY[dW]KTCT-OH; disulfide 5-10) has a tissue to tissue ratio at 24 h (T/K Tumor/Kidney ratio) of 1.5, a tissue to tissue ratio at 24 h (T/L Tumor/Liver ratio) of 1.5 and a tissue to tissue ratio at 24 h (T/P Tumor/Pancreas ratio) of 9.8. It also gave a tissue to tissue ratio at 24 h (T/Sp Tumor/Spleen ratio) of 14, a tissue to tissue ratio at 24 h (T/St Tumor/Stomach ratio) of 3.2 and a tissue uptake at 24 h (uptake Kidney) of 5.93 %ID/g. It also gave a tissue uptake at 24 h (uptake Liver) of 5.92 %ID/g, a tissue uptake at 24 h (uptake Pancreas) of 0.92 %ID/g and a tissue uptake at 24 h (uptake Spleen) of 0.62 %ID/g. It also gave a tissue uptake at 24 h (uptake Stomach) of 2.77 %ID/g and a tissue uptake at 24 h (uptake Tumor) of 8.97 %ID/g.

Molecule `C[C@@H](O)[C@H](NC(=O)[C@@H]1CSSC[C@H](NC(=O)[C@@H](Cc2ccccc2)NC(=O)COCCOCCNC(=O)[C@H](CCCCNC(=O)c2cccc(NC(=O)N[C@@H]3CN(C4CCCCC4)c4ccccc4N(CC(=O)C(C)(C)C)C3=O)c2)NC(=O)COCCOCCNC(=O)CN2CCN(CC(=O)O)CCN(CC(=O)O)CCN(CC(=O)O)CC2)C(=O)N[C@@H](Cc2ccc(O)cc2)C(=O)N[C@H](Cc2c[nH]c3ccccc23)C(=O)N[C@@H](CCCCN)C(=O)N[C@@H]([C@@H](C)O)C(=O)N1)C(=O)O` [Compound I-52, DOTA-OEG-K(Z360)-OEG-f[CYwKTC]T-OH] has a tissue to tissue ratio at 24 h (T/K Tumor/Kidney ratio) of 0.9, a tissue to tissue ratio at 24 h (T/L Tumor/Liver ratio) of 2.2 and a tissue to tissue ratio at 24 h (T/P Tumor/Pancreas ratio) of 14. For the same molecule, the tissue to tissue ratio at 24 h (T/Sp Tumor/Spleen ratio) was 36, the tissue to tissue ratio at 24 h (T/St Tumor/Stomach ratio) was 2.4 and the tissue uptake at 24 h (uptake Kidney) was 14 %ID/g. It also gave a tissue uptake at 24 h (uptake Liver) of 5.7 %ID/g, a tissue uptake at 24 h (uptake Pancreas) of 0.9 %ID/g and a tissue uptake at 24 h (uptake Spleen) of 0.3 %ID/g. The tissue uptake at 24 h (uptake Stomach) was 5.1 %ID/g and the tissue uptake at 24 h (uptake Tumor) was 12.4 %ID/g.

`C[C@@H](O)[C@H](NC(=O)[C@@H]1CSSC[C@H](NC(=O)[C@@H](Cc2ccccc2)NC(=O)CNC(=O)COCCOCCNC(=O)[C@H](CCCCNC(=O)c2cccc(NC(=O)N[C@@H]3CN(C4CCCCC4)c4ccccc4N(CC(=O)C(C)(C)C)C3=O)c2)NC(=O)CN2CCN(CC(=O)O)CCN(CC(=O)O)CCN(CC(=O)O)CC2)C(=O)N[C@@H](Cc2ccc(O)cc2)C(=O)N[C@H](Cc2c[nH]c3ccccc23)C(=O)N[C@@H](CCCCN)C(=O)N[C@@H]([C@@H](C)O)C(=O)N1)C(=O)O` [Compound I-53, DOTA-K(Z360)-OEG-G-f[CYwKTC]T-OH] gave a tissue to tissue ratio at 24 h (T/K Tumor/Kidney ratio) of 2.3, a tissue to tissue ratio at 24 h (T/L Tumor/Liver ratio) of 6.3 and a tissue to tissue ratio at 24 h (T/P Tumor/Pancreas ratio) of 18. For the same molecule, the tissue to tissue ratio at 24 h (T/Sp Tumor/Spleen ratio) was 52, the tissue to tissue ratio at 24 h (T/St Tumor/Stomach ratio) was 4.8 and the tissue uptake at 24 h (uptake Kidney) was 7.15 %ID/g. The tissue uptake at 24 h (uptake Liver) was 2.57 %ID/g, the tissue uptake at 24 h (uptake Pancreas) was 0.91 %ID/g and the tissue uptake at 24 h (uptake Spleen) was 0.31 %ID/g. For the same molecule, the tissue uptake at 24 h (uptake Stomach) was 3.36 %ID/g and the tissue uptake at 24 h (uptake Tumor) was 16.2 %ID/g.
